We go through one molecule from patent US20250242062A1 (VANDERBILT UNIVERSITY, published 2025).

Assay [1] deals with T1, murine COX-2 (mCOX-2) enzyme (murine, UniProt Q05769 18-604).
T1 construct: also called apo mCOX-2; mouse COX-2
T1 sequence (looked up): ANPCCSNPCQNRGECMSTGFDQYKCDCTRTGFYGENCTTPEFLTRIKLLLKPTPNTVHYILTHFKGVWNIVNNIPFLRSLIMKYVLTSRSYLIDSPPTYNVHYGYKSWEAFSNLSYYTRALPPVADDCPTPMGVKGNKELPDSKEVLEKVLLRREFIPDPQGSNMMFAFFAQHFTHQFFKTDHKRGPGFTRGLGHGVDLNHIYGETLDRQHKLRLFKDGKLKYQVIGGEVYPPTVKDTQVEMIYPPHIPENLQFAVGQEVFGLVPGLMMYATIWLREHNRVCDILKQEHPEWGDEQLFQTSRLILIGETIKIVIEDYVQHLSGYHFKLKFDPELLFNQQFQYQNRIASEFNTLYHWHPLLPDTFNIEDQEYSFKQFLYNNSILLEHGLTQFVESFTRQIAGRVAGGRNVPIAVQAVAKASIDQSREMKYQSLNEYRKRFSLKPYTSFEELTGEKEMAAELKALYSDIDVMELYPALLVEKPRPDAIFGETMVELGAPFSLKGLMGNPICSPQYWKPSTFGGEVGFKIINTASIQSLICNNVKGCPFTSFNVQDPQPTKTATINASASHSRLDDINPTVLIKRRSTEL
The assay can be described thus: microscale thermophoresis (MST), apo mCOX-2; apo mCOX-2 as target. The procedure: The dissociation constant of A7 and F9 nanobodies while bound to apo mCOX-2 was evaluated by a microscale thermophoresis (MST) assay (Bartoschik, T, et al. Sci Rep 2018 8:4977). […] Further, the COX-2 inhibitory activity of A7 and F9 nanobodies was evaluated in the production of prostaglandin E2 (PGE2) and prostaglandin D2 (PGD2) using arachidonic acid (AA) as a substrate. In this assay, purified mouse COX-2 expressed in baculovirus-infected Sf9 cells was used. Purified COX-2 was incubated with varying concentrations of test nanobodies followed by the addition of hematin and AA, respectively. The PGE2 and PGD2 products in the reaction was quantified by a tandem liquid chromatography mass spectroscopy (LC-MS/MS) analysis.

Assay [2] addresses T1, murine COX-2 (mCOX-2) enzyme. The assay can be described thus: cell-based or functional assay.

B1: A7 nanobody (VHH)
VHH: QVQLQESGGGLVQPGGSLKLSCAASGSIFSINVMGWYRQAPGKQRELVATITSGGTTNYADSVKGRFTISRDNAKDTLYLQMNSLKPEDTAVYYCNAKDLGGSSWFSEFDYWGQGTQVTVGP
notes: Alpaca-derived VHH expressed in E. coli and purified by SEC; The stated molecular weight is 15.24 kDa; also called native A7 nanobody clone
In the case of B1, the Kd in assay [1] was found to be 2.4 nM. Besides, the “IC50, inhibition of PGE2 and PGD2 production from arachidonic acid by purified mouse COX-2 (LC-MS/MS)” value in assay [2] was found to be 6.8 nM.
